Results as given in the supplement of paper PMC10567573.
± gives the standard deviation.

Test: protein stability index of a GFP-peptide fusion (GPS, HEK-293T) (PSI 1-6); higher = more stable
[1] = treatment: DMSO, c terminus: a fixed tail appended
[2] = treatment: MLN4924 1 uM, 8 h, c terminus: a fixed tail appended
[3] = treatment: DMSO, c terminus: native
[4] = treatment: MLN4924 1 uM, 8 h, c terminus: native
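Also: 24-mer peptide tiles fused after GFP, lentivirally expressed, FACS-sorted into six equal bins by GFP/DsRed ratio, decoded by Illumina sequencing, PSI is the read-weighted mean bin number.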

Sequence	protein stability index [1]	protein stability index [2]	protein stability index [3]	protein stability index [4]
RNQCRYCRLKKCFRAGMKKEAVQN [HNF4A]	2.9 ± 0.33	3.19 ± 0.45		
DLPSSLLLPEDMALRNLPPLRAAH [SMG5]	3.56 ± 0.29	3.44 ± 0.16		
TIKLWKITERDKRPEGYNLKDEEG [PPP2R2C]	4.05 ± 0.25	4.03 ± 0.17		
TAVAQGGWRSLWLGWGPTALRDVP [SLC25A39]	2.45 ± 0.14	1.89 ± 0.17		
RNQKGEQVFRLAFRSGALDLDSCS [MYORG]	2.42 ± 0.33	2.48 ± 0.4		
FTCDLQHTETGEEVLRMCVAVKKK [VPS39]	2.84 ± 0.3	2.96 ± 0.4		
VAALREEQKVLSRLVESLSTQIRA [RASAL3]	2.34 ± 0.35	2.38 ± 0.11		
TANCEACTLGICGQGLKSYMTKPS [RTP4]	2.89 ± 0.025	3.01 ± 0.26		
LTINPAKRITAHEALKHPWVCQRS [CAMK2B]	2.55 ± 0.29	2.95 ± 0.16		
PQYRSYFMECLVDARMLDHLTKKD [PPFIA4]	2.7 ± 0.2	2.58 ± 0.17		
RIIYMLLITIATFQIAANLSMERY [SLC19A2]	3.32 ± 0.31	2.91 ± 0.12		
FFRSLLPNYTMEGERPEEGVAGGL [TCF25]	3.09 ± 0.32	3.52 ± 0.15		
MMKPQAETGEAARDPSLRPARTVL	4.18 ± 0.13	4.33 ± 0.13		
GADPKSVVCAFFKQGQCTKGDKCK [ZC3H15]	3.82 ± 0.14	4.28 ± 0.37		
HYRELLDSLPMDAYTHGCILHPEL [GDAP1]	2.36 ± 0.2	2.43 ± 0.034		
FAEKGELRKSIFSESRKPTVSIME [TRIM29]	2.37 ± 0.6	3.09 ± 0.59		
TDRRVLLMFLDICSELNKLCQHFE [SPACA9]	2.44 ± 0.56	2.38 ± 0.42		
QQPGQDALAVKAGHGYDSKKQQEL [ZBED1]	5.35 ± 0.22	5.21 ± 0.19		
FRNAASTLTERPCYNRRASKLTY [ANKRD40]			3.26 ± 0.21	3.16 ± 0.39
ADKKRSGKKKISKADIGAPSGFKH [WAS]	4.63 ± 0.27	4.87 ± 0.24		
IVRLHDSISEEGFHYLVFDLVTGG [CAMK2B]	2.85 ± 0.66	2.65 ± 0.52		
NFCHIHNCIHRDIKPENILITKQG [CDKL4]	2.53 ± 0.067	2.74 ± 0.43		
LTYENVERWLKELRDHADSNIVIM [RAB11A]	2.21 ± 0.34	2.75 ± 0.3		

Sequence	protein stability index [1]	protein stability index [2]	protein stability index [3]	protein stability index [4]
SRWSEASRAILQRVQAAAFGPGQT [ALKBH7]	3.01 ± 0.38	3.19 ± 0.39		
SSQESGEEAGSQENHPQESKGQPR [CHGB]	5.7 ± 0.16	5.73 ± 0.097		
RRERELERRELAVEQGERALERRR [ZBED3]	5.03 ± 0.44	5.18 ± 0.63		
DYSREVNTTEELEALITDPDEMRM [FEM1A]	5.11 ± 0.21	5.17 ± 0.18		
YPVGRFPSLHVVKVLLDCGADPDS [FEM1A]	2.12 ± 0.17	2.38 ± 0.51		
FFYTAATNNPRFDKMEGNPICVQI [CRY1]	2.92 ± 0.33	2.83 ± 0.67		
YVGNLPPDIRTKDIEDVFYKYGAI [SRSF1]	2.28 ± 0.35	2.43 ± 0.36		
FGIDVKEVDPTGHSFVLVTSLGLT [MAGEA10]	2.43 ± 0.55	2.28 ± 0.59		
APVANSYRGTLKRQPAFDTFDGSL [ETS2]	3.4 ± 0.097	3.42 ± 0.13		
GGGSNNGKTPVCHQCHKVIRGRYL [PDLIM7]	2.81 ± 0.52	3.07 ± 0.42		
HCASPPPSSNNKELFYRVNYIGTK [NSDHL]	3.18 ± 0.17	3.31 ± 0.19		
SDSVHIEDAEAVEQLREALHEALL [ESRRA]	3.09 ± 0.42	3.29 ± 0.34		
YYEMGIHCWDVAGAGIIVTEAGGV [IMPA1]	2.21 ± 0.34	2.03 ± 0.37		
GTDIVRGCDPLVKPVGRQACDLQP [ADAMTSL2]	4.08 ± 0.22	4.22 ± 0.059		
VEINDLDPEVFKEMMRFIYTGRAP [SPOPL]	2.36 ± 0.33	2.05 ± 0.28		
NGCRSGEIFAIDLRCGNQGKGWKA [DCAF4]	2.31 ± 0.35	2.2 ± 0.29		
LHLGLPWRMLRPQLVNSSADNMLE [PPEF2]	2.87 ± 0.31	2.67 ± 0.48		
WLDPGHTAVAQAPPAVASSSLFDL [SERTAD1]	3.33 ± 0.27	3.38 ± 0.097		
PKKEANQAPKSKSGSRPRKPPPRK [LRRC59]	4.92 ± 0.21	5 ± 0.18		
IKVTSATSVNLGILTADLYSLFVG [SLC35F2]	3.07 ± 0.36	2.92 ± 0.42		
WKYILLGLADVEANYVIVRAYQYT [SLC35F2]	2.77 ± 0.66	2.86 ± 0.26		
LQLFSSTLVGCWSDVVGRRSSLLA [MFSD9]	2.59 ± 0.65	2.38 ± 0.47		
PPHYFFTYRIRIEMSKDALPEKAC [FBXO3]	2.47 ± 0.48	2.17 ± 0.23		

Sequence	protein stability index [1]	protein stability index [2]	protein stability index [3]	protein stability index [4]
GPQPTMEGDVLDTLEALGYKGPLL [FAM98B]	4.18 ± 0.32	4.07 ± 0.38		
LRALGELLRRDLGVGTSMEGASPL [FANCE]	2.92 ± 0.32	2.91 ± 0.43		
KPVDIWACGVILYILLVGYPPFWD [CAMK2B]	3.27 ± 0.31	3.03 ± 0.17		
SSREVFTSSSSSSSRQTRPILKEQ [KRT16]	4.67 ± 0.11	4.7 ± 0.3		
SLADQMSLLQSAWMEILILGVVYR [ESRRG]	2.88 ± 0.55	2.86 ± 0.42		
AAQELENQMKERQGLFFDMEAYLP [TMEM120A]	3.69 ± 0.27	3.87 ± 0.21		
GHSTDAREMSKTFIIGELHPDDRP [CYB5A]	4.38 ± 0.15	4.66 ± 0.16		
MEPAVSEPMRDQVARTHLTEDTPK [NSDHL]	5.57 ± 0.16	5.51 ± 0.22		
RPLLQYVQDMGQEDMLLPLAWRIV [CCNC]	2.44 ± 0.17	2.24 ± 0.31		
REDILSCYDVYSPDKEEQLPFGPF [PKD2L1]	4.09 ± 0.17	3.93 ± 0.23		
KNRYANVIAYDHSRVLLSAIEGIP [PTPRD]	2.27 ± 0.82	2.26 ± 0.4		
VRKANRIKECLSKGTFSDVTFKLD [RHOBTB1]	3.33 ± 0.21	3.43 ± 0.19		
HNAHQLAAWCLHHICTNYNSVCSK [RHOBTB1]	2.85 ± 0.55	2.79 ± 0.59		
SRFVETLVVADDKMAAFHGAGLKR [ADAMTS4]	3.46 ± 0.089	4.26 ± 0.11		
VELLPPAPKGKGRKPAAGAQSAGT [BRD3]	4.58 ± 0.3	4.87 ± 0.42		
HEPLSKERVEAFSDGVYAIVATLL [TMEM175]	2.15 ± 0.28	2.15 ± 0.11		
LSNLQKESRACLERIQELEDLLAK [LMNB1]	3.52 ± 0.15	3.67 ± 0.23		
GEKPYECVQCGKSYSQSSNLFRHQ [ZNF24]	2.4 ± 0.62	2.83 ± 0.56		
KSSGKHYGQFTCEGCKSFFKRSVR [NR2F2]	2.37 ± 0.18	2.68 ± 0.41		
TGEKLLELNGHTQKITAIITFPSL [WDR41]	2.45 ± 0.58	2.3 ± 0.55		
RQLEIMGKEVSGDQIEDMFEQGKW [STX11]	3.73 ± 0.13	3.56 ± 0.2		
QADLELDYNPPRVQLSDEMFVFQD [CBY2]	4.65 ± 0.28	4.83 ± 0.21		
TATMKDLEAEVKDTTRVENLIKSE [R3HDM1]	5.36 ± 0.17	5.46 ± 0.23		

Sequence	protein stability index [1]	protein stability index [2]	protein stability index [3]	protein stability index [4]
VEPETRAVIRWMHSFNFVLSANLH [CPN1]	3.1 ± 0.12	3.19 ± 0.27		
CEMEQQSQEYQILLDVKTRLEQEI [KRT16]	4.1 ± 0.39	4.11 ± 0.37		
AIMRSPQMVSAIVRTMQNTNDVET [CTNNB1]	3.77 ± 0.098	3.81 ± 0.14		
LRDWEDLQQDFQNIQETHRLYRLK [TMEM120A]	3.38 ± 0.28	3.49 ± 0.4		
SKKFKNCFQSCLCCCCYQSKSLMT [EDNRA]	2.78 ± 0.1	2.84 ± 0.15		
PWAVDPAFAERYAPDKTSTVLTRH [PDLIM7]	3.57 ± 0.24	3.56 ± 0.25		
FGKKEKGRLIQLSRDGATGHVLLT [PPFIA4]	2.71 ± 0.36	2.78 ± 0.2		
VWFGGREHVLMFAKLALYPCASLL [TMEM175]	2.77 ± 0.26	3.18 ± 0.27		
MASSSTVPLGFHYETKYVVLSYLG [BCL2L13]	2.64 ± 0.48	2.33 ± 0.45		
NGTKADGKDAKTTNGHGGEAAEGK [TRIM29]	5.48 ± 0.2	5.55 ± 0.12		
PKAQLSGYAVEATRNQSQLQRFL [FBF1]			4.13 ± 0.19	4.21 ± 0.38
NLRLQRKLQREMERREALCRQLSE [CCDC6]	3.52 ± 0.27	3.63 ± 0.43		
SMNRVKNISDADVHNAMDNYECNL [FEM1B]	4.18 ± 0.29	4.3 ± 0.29		
MESKEKRAVNSLSMENANQENEEK [BEX1]	5.5 ± 0.25	5.52 ± 0.23		
TTLLRRYNIPHGPVVGSTRRLYEK [EMD]	3.14 ± 0.16	3.25 ± 0.15		
LLSCGKILTGCKNMLFQQNKDGIG [ACSBG2]	2.13 ± 0.42	2.23 ± 0.17		
KSRLVQLPPVAVRSLQDLARIAIR [PCMTD2]	3.52 ± 0.19	3.7 ± 0.073		
GDVLLDETLKHIKATEPTETVQTW [GOLPH3L]	4.41 ± 0.27	4.45 ± 0.26		
WEISDDYPSLQAMGWFNNEVGSMK [CRYBA1]	3.19 ± 0.24	3.42 ± 0.38		
SDPETKDFWLNMAALTEALQRQAE [FCHO1]	3.29 ± 0.22	3.23 ± 0.32		
